Earlier results as cited in article PMC9780825, “Combining mKate2-Kv1.3 Channel and Atto488-Hongotoxin for the Studies of Peptide Pore Blockers on Living Eukaryotic Cells” (Toxins, 2022).

How the values were obtained:
Kv1.3 (Homo sapiens) [1] = biological target: Kv1.3 (Homo sapiens) (UniProt P22001); assay: Rb+ efflux
Kv1.3 (Homo sapiens) [2] = biological target: Kv1.3 (Homo sapiens) (UniProt P22001); assay: radioligand analysis
Kv1.3 (Mus musculus) = Kv1.3 (Mus musculus) (UniProt P16390); assay: whole-cell patch clamp
Kv1.3 (Mus musculus), sequence (P16390 whole entry): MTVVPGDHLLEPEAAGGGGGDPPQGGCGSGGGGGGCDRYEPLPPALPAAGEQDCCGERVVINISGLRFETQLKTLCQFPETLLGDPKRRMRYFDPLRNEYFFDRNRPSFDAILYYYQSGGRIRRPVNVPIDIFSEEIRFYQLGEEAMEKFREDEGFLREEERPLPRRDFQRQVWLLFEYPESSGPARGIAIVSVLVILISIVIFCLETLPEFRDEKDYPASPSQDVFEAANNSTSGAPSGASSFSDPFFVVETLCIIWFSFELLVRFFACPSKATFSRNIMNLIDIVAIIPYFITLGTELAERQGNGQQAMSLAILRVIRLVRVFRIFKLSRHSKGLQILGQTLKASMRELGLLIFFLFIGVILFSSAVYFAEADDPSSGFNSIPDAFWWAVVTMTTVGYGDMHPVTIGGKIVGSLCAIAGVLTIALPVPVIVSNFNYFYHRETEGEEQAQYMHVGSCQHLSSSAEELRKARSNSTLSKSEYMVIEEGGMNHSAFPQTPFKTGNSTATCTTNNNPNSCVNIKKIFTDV

Kv1.3 (Homo sapiens) [3] = biological target: Kv1.3 (Homo sapiens) (UniProt P22001); assay: two-electrode voltage clamp
[4] = biological target: Kv1.3 (Rattus norvegicus) (UniProt P15384); assay: two-electrode voltage clamp
Kv1.3 (Rattus norvegicus), sequence (P15384 whole entry): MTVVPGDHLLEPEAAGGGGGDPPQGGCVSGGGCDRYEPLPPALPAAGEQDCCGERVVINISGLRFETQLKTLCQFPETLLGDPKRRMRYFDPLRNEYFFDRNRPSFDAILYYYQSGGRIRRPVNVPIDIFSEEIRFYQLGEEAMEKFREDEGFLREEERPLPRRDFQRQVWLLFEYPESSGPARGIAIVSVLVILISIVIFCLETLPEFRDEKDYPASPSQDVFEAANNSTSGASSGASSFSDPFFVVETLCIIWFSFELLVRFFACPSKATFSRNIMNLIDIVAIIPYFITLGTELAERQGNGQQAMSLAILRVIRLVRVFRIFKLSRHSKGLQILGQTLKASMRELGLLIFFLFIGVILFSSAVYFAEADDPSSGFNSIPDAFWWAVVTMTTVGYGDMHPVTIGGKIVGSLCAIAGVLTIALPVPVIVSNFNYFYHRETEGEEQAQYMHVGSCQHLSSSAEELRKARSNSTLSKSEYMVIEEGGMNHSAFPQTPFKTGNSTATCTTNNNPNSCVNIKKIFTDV

agitoxin 2, sequence (P46111 whole entry): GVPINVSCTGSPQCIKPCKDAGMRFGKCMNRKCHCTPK
Kv1.3 (Homo sapiens), sequence (P22001 whole entry): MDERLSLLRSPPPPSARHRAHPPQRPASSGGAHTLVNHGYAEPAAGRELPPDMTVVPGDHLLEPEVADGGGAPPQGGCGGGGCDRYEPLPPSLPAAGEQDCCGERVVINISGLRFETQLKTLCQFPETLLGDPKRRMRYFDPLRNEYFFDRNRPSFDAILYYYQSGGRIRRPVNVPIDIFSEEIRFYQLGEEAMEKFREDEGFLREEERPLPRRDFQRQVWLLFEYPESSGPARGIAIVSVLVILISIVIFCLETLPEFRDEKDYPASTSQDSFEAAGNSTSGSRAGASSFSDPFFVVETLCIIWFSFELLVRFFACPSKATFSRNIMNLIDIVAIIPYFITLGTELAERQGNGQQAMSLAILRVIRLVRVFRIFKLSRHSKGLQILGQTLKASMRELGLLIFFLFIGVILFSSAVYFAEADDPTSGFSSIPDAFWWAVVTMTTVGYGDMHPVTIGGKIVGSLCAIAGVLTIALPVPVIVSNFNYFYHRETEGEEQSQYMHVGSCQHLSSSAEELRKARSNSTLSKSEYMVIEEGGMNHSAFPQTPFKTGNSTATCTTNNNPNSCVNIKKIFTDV
charybdotoxin, sequence (P13487 23-59): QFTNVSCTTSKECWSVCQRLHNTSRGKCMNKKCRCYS
kaliotoxin 1, sequence (P24662 whole entry): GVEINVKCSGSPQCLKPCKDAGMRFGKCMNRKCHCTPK
hongotoxin 1, sequence (P59847 whole entry): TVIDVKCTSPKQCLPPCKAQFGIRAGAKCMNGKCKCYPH

For hongotoxin 1 (from UniProt P59847), the Kd (Kv1.3 (Homo sapiens) [1]) is given as 0.086 nM and the Kd (Kv1.3 (Homo sapiens) [2]) is given as 0.00024 nM.
In the case of kaliotoxin 1 (from UniProt P24662), the Kd (Kv1.3 (Mus musculus)) is given as 0.65 nM and the Kd (Kv1.3 (Homo sapiens) [3]) is given as 0.01 nM.
In the case of charybdotoxin (from UniProt P13487), the Kd (Kv1.3 (Mus musculus)) is given as 3 nM and the Kd (Kv1.3 (Homo sapiens) [3]) is given as 0.9 nM.
For agitoxin 2 (from UniProt P46111), the Kd (Kv1.3 (Mus musculus)) is given as 0.2 nM, the Kd (Kv1.3 (Homo sapiens) [3]) is given as 0.05 nM and the Kd [4] is given as 0.004 nM.
